B1: TPR t1 (parent)
chain: GACCAAUCUGCCCUCAGAGCUCGAGAACAUCUUCGGAUGCAGAGGAGGCAGGCUUCGGUGGCGCGAUAGCGCCAACGUCCUCAACCUCCAAUGCAUCCCACCACAUGAUGAUGCCUGAAGAGCCUUGGUUUUUUG

Variants of: B1
Test: polymerase ribozyme fitness, log enrichment relative to wild type (log ratio); higher = more active; in vitro selection for triplet polymerase activity
Outline: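 Input and output libraries were sequenced on Illumina after a single in vitro selection round, run in triplicate on PCR-built, transcribed mutant libraries of each subunit of a heterodimeric triplet polymerase ribozyme. Selection annealed libraries to a biotinylated primer, the partner subunit and triplets, incubated them frozen at −7 °C, then gel-excised extended constructs for streptavidin-bead capture and RT-PCR. Genotypes with ≥10 input reads and ≥1 read per output were kept. Fitness is the logarithm, taken in base 2, of genotype enrichment divided by wild-type enrichment, using inverse-variance-weighted replicate averages.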

A18C U125G and G17U G51A A121U are within 0.2 log units of each other in “polymerase ribozyme fitness (log ratio)” value: -3.63 for the first, -3.76 for the second.

First: G17U C28U G39A G110A
Second: A18U C70U A121U
The “polymerase ribozyme fitness (log ratio)” value of the first is lower: -2.46 for the first, -1.34 for the second.

Going from G17U U78C C114G to G17U U87G, the “polymerase ribozyme fitness (log ratio)” value rises from -5.37 to -2.25.

G17U U87A and A18U A111C are within 0.2 log units of each other in “polymerase ribozyme fitness (log ratio)” value: -2.81 for the first, -2.74 for the second.

First: A18U C56U
Second: A18C U106A
The “polymerase ribozyme fitness (log ratio)” value of the first is higher: -1.72 for the first, -3.06 for the second.

First: G17U G45A G60C
Second: G17U C70G C82G C124A U131G
The “polymerase ribozyme fitness (log ratio)” value of the first is higher: -2.05 for the first, -4.66 for the second.

Compared with G17U U81A, G17C G69U is higher in “polymerase ribozyme fitness (log ratio)” value: -3.22 for the first, -2.68 for the second.

First: A18U C73A
Second: A18U A50U
The “polymerase ribozyme fitness (log ratio)” value of the first is higher: -3.04 for the first, -4.84 for the second.

Compared with A18G C20U G39A A43G C49A A66U U78G, A18U C115U is higher in “polymerase ribozyme fitness (log ratio)” value: -6.02 for the first, -2.09 for the second.

Compared with A18G G42A G63U G113A U132A, A18C G71A C88U G93C is lower in “polymerase ribozyme fitness (log ratio)” value: -3.41 for the first, -4.58 for the second.

Compared with A18G C82A C94U, A18C G19A C85U G120A is higher in “polymerase ribozyme fitness (log ratio)” value: -4.18 for the first, -3.39 for the second.

Compared with A18C G71A, A18G G113U is higher in “polymerase ribozyme fitness (log ratio)” value: -4.91 for the first, -4.5 for the second.

Going from A18G G113A to G17U A26G G71A C94A U112C C115A, the “polymerase ribozyme fitness (log ratio)” value falls from -1.78 to -2.54.

Going from A18C A43G C72G C114U U129C to G17U U55C, the “polymerase ribozyme fitness (log ratio)” value rises from -4.8 to -2.57.

First: A18C C20A U55C G57A G63A
Second: G17U C34A C124G U133A
The “polymerase ribozyme fitness (log ratio)” value of the first is lower: -4.91 for the first, -2.78 for the second.

First: A18U C64U C97U U116C G120A
Second: A18U C40U C72U U78G C123G G135C
The “polymerase ribozyme fitness (log ratio)” value of the first is lower: -4.84 for the first, -1.48 for the second.

Going from G17U U96G C98A G113U to A18G G48U, the “polymerase ribozyme fitness (log ratio)” value rises from -6.9 to -2.96.

Going from A18G C56U to G17U C40G C99G A111U, the “polymerase ribozyme fitness (log ratio)” value falls from -2.25 to -6.82.

First: A18C G52A C72U
Second: A18C G60A C89G U106A
The “polymerase ribozyme fitness (log ratio)” value of the first is higher: -2.39 for the first, -3.6 for the second.

A18U G36U and A18U G36A are within 0.2 log units of each other in “polymerase ribozyme fitness (log ratio)” value: -3.48 for the first, -3.63 for the second.

Compared with A18C U116A, A18G G60U U96G A108U is lower in “polymerase ribozyme fitness (log ratio)” value: -3.4 for the first, -7.14 for the second.

Compared with A18G C49A U92A C123A, G17U C34A G63A C79U C115A is higher in “polymerase ribozyme fitness (log ratio)” value: -4.5 for the first, -3.37 for the second.

Going from G17U G71U U132A to G17U G69A C114G, the “polymerase ribozyme fitness (log ratio)” value falls from -2.7 to -5.6.

First: G17U C49A U126C
Second: A18C G69U C115U
The “polymerase ribozyme fitness (log ratio)” value of the first is lower: -3.28 for the first, -1.28 for the second.

First: G17C U106A
Second: A18U C73U U96G C104U
The “polymerase ribozyme fitness (log ratio)” value of the first is lower: -4.68 for the first, -2.93 for the second.

Going from A18G G69U C102U C115A to A18C U55A G57C C70G C124A, the “polymerase ribozyme fitness (log ratio)” value falls from -5.41 to -6.54.

Compared with G17U G61A, A18C A74U is lower in “polymerase ribozyme fitness (log ratio)” value: -2.18 for the first, -4.85 for the second.

First: A18U A26G G71U G120A G127U
Second: A18C C20G G47U G48U
The “polymerase ribozyme fitness (log ratio)” value of the first is lower: -5.55 for the first, -4.66 for the second.

First: G17C U116G C124A
Second: A18G G69U
The “polymerase ribozyme fitness (log ratio)” value of the first is lower: -2.05 for the first, -1.47 for the second.

Compared with A18U A121C, G17U C124G G128C is lower in “polymerase ribozyme fitness (log ratio)” value: -0.0692 for the first, -1.84 for the second.

First: A18U C53A
Second: G17U G117A
The “polymerase ribozyme fitness (log ratio)” value of the first is higher: -2.38 for the first, -3.31 for the second.

First: A18U C53U C124G
Second: A18C U38A C115A U116G C123U U126A
The “polymerase ribozyme fitness (log ratio)” value of the first is higher: -0.337 for the first, -4.52 for the second.

Going from G17U G45C C62U to A18C U92C G117A G120U U129A, the “polymerase ribozyme fitness (log ratio)” value falls from -4.56 to -5.88.

Going from G17U C49A G69C U109C C115A to G17U C85A, the “polymerase ribozyme fitness (log ratio)” value rises from -7.12 to -3.6.

Going from A18G C20U A29U U32G C53A C97U to A18G G107A, the “polymerase ribozyme fitness (log ratio)” value falls from -2.71 to -3.37.

Compared with G17U G42A, A18C G48U C56U A84G is lower in “polymerase ribozyme fitness (log ratio)” value: -3.86 for the first, -4.19 for the second.

Going from A18C C73G C114U to G17U A43U, the “polymerase ribozyme fitness (log ratio)” value rises from -3.9 to -3.34.

Going from A18G U78C G117U C123A C124G to A18U A41U C56U C72A U133A, the “polymerase ribozyme fitness (log ratio)” value falls from -1.41 to -3.75.

Compared with G17U C62U C73U C101A U130C, A18C U87C is higher in “polymerase ribozyme fitness (log ratio)” value: -3.73 for the first, -2.11 for the second.

First: A18G A43C C53A G63U
Second: A18G U112A
The “polymerase ribozyme fitness (log ratio)” value of the first is lower: -5.8 for the first, -0.0704 for the second.

Going from A18C G48U G57U to A18C C89G C114A U130A, the “polymerase ribozyme fitness (log ratio)” value falls from -2.85 to -3.2.

Compared with A18U A91G, A18U A37U A41G C64U is lower in “polymerase ribozyme fitness (log ratio)” value: -1.85 for the first, -2.4 for the second.
